The supplement of paper PMC10567573

B1: HDAC6 (parent)
chain: QYMNEGELRVLADTYDSVYLHPNS

Variants of: B1
Assay: protein stability index of a GFP-peptide fusion (GPS, HEK-293T) (PSI 1-6); higher = more stable
Conditions: c terminus: a fixed tail appended
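Further: lentivirally expressed fusions sorted by FACS into six bins by GFP to DsRed ratio, PSI derived from sequencing read proportions per bin multiplied by bin number.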

Variant | protein stability index
TYMNEGELRVLADTYDSVYLHPNS [Q1T] | 1.84
WYMNEGELRVLADTYDSVYLHPNS [Q1W] | 2.21
YYMNEGELRVLADTYDSVYLHPNS [Q1Y] | 1.69
QAMNEGELRVLADTYDSVYLHPNS [Y2A] | 1.43
QDMNEGELRVLADTYDSVYLHPNS [Y2D] | 3.19
QEMNEGELRVLADTYDSVYLHPNS [Y2E] | 2.9
QFMNEGELRVLADTYDSVYLHPNS [Y2F] | 2.2
QGMNEGELRVLADTYDSVYLHPNS [Y2G] | 3.27
QHMNEGELRVLADTYDSVYLHPNS [Y2H] | 2.13
QIMNEGELRVLADTYDSVYLHPNS [Y2I] | 1.94
QKMNEGELRVLADTYDSVYLHPNS [Y2K] | 3.46
QLMNEGELRVLADTYDSVYLHPNS [Y2L] | 2.68
QMMNEGELRVLADTYDSVYLHPNS [Y2M] | 1.73
QNMNEGELRVLADTYDSVYLHPNS [Y2N] | 4.07
QPMNEGELRVLADTYDSVYLHPNS [Y2P] | 4.32
QQMNEGELRVLADTYDSVYLHPNS [Y2Q] | 2.47
QRMNEGELRVLADTYDSVYLHPNS [Y2R] | 3.3
QSMNEGELRVLADTYDSVYLHPNS [Y2S] | 2.71
QTMNEGELRVLADTYDSVYLHPNS [Y2T] | 2.9
QVMNEGELRVLADTYDSVYLHPNS [Y2V] | 3.27
QWMNEGELRVLADTYDSVYLHPNS [Y2W] | 2.11
QYANEGELRVLADTYDSVYLHPNS [M3A] | 3.17
QYCNEGELRVLADTYDSVYLHPNS [M3C] | 3.07
QYDNEGELRVLADTYDSVYLHPNS [M3D] | 4.19

Variant | protein stability index
QYENEGELRVLADTYDSVYLHPNS [M3E] | 3.88
QYFNEGELRVLADTYDSVYLHPNS [M3F] | 2.15
QYHNEGELRVLADTYDSVYLHPNS [M3H] | 3.64
QYINEGELRVLADTYDSVYLHPNS [M3I] | 3.39
QYKNEGELRVLADTYDSVYLHPNS [M3K] | 3.39
QYLNEGELRVLADTYDSVYLHPNS [M3L] | 2.38
QYNNEGELRVLADTYDSVYLHPNS [M3N] | 3.41
QYPNEGELRVLADTYDSVYLHPNS [M3P] | 4.02
QYQNEGELRVLADTYDSVYLHPNS [M3Q] | 3.73
QYRNEGELRVLADTYDSVYLHPNS [M3R] | 3.65
QYSNEGELRVLADTYDSVYLHPNS [M3S] | 3.23
QYTNEGELRVLADTYDSVYLHPNS [M3T] | 2.99
QYVNEGELRVLADTYDSVYLHPNS [M3V] | 3.46
QYWNEGELRVLADTYDSVYLHPNS [M3W] | 2.29
QYYNEGELRVLADTYDSVYLHPNS [M3Y] | 2.56
QYMAEGELRVLADTYDSVYLHPNS [N4A] | 1.8
QYMCEGELRVLADTYDSVYLHPNS [N4C] | 2.08
QYMDEGELRVLADTYDSVYLHPNS [N4D] | 1.61
QYMEEGELRVLADTYDSVYLHPNS [N4E] | 3.02
QYMFEGELRVLADTYDSVYLHPNS [N4F] | 1.21
QYMGEGELRVLADTYDSVYLHPNS [N4G] | 1.89
QYMHEGELRVLADTYDSVYLHPNS [N4H] | 2.23
QYMIEGELRVLADTYDSVYLHPNS [N4I] | 2.49
QYMKEGELRVLADTYDSVYLHPNS [N4K] | 2.2

Variant | protein stability index
QYMLEGELRVLADTYDSVYLHPNS [N4L] | 1.55
QYMMEGELRVLADTYDSVYLHPNS [N4M] | 2.76
QYMPEGELRVLADTYDSVYLHPNS [N4P] | 2.81
QYMQEGELRVLADTYDSVYLHPNS [N4Q] | 2.19
QYMREGELRVLADTYDSVYLHPNS [N4R] | 2.97
QYMSEGELRVLADTYDSVYLHPNS [N4S] | 2.05
QYMTEGELRVLADTYDSVYLHPNS [N4T] | 2.16
QYMVEGELRVLADTYDSVYLHPNS [N4V] | 1.68
QYMYEGELRVLADTYDSVYLHPNS [N4Y] | 1.93
QYMNAGELRVLADTYDSVYLHPNS [E5A] | 2.95
QYMNCGELRVLADTYDSVYLHPNS [E5C] | 1.96
QYMNDGELRVLADTYDSVYLHPNS [E5D] | 1.88
QYMNFGELRVLADTYDSVYLHPNS [E5F] | 1.72
QYMNGGELRVLADTYDSVYLHPNS [E5G] | 2.85
QYMNHGELRVLADTYDSVYLHPNS [E5H] | 2.91
QYMNKGELRVLADTYDSVYLHPNS [E5K] | 1.9
QYMNLGELRVLADTYDSVYLHPNS [E5L] | 2.12
QYMNMGELRVLADTYDSVYLHPNS [E5M] | 1.8
QYMNNGELRVLADTYDSVYLHPNS [E5N] | 3.15
QYMNPGELRVLADTYDSVYLHPNS [E5P] | 2.57
QYMNSGELRVLADTYDSVYLHPNS [E5S] | 1.92
QYMNTGELRVLADTYDSVYLHPNS [E5T] | 2.02
QYMNVGELRVLADTYDSVYLHPNS [E5V] | 1.21
QYMNYGELRVLADTYDSVYLHPNS [E5Y] | 2.03

Variant | protein stability index
QYMNEAELRVLADTYDSVYLHPNS [G6A] | 3.02
QYMNECELRVLADTYDSVYLHPNS [G6C] | 2.26
QYMNEDELRVLADTYDSVYLHPNS [G6D] | 1.89
QYMNEEELRVLADTYDSVYLHPNS [G6E] | 2.19
QYMNEFELRVLADTYDSVYLHPNS [G6F] | 2.94
QYMNEHELRVLADTYDSVYLHPNS [G6H] | 1.63
QYMNEIELRVLADTYDSVYLHPNS [G6I] | 1.72
QYMNEKELRVLADTYDSVYLHPNS [G6K] | 2.06
QYMNELELRVLADTYDSVYLHPNS [G6L] | 2.51
QYMNEMELRVLADTYDSVYLHPNS [G6M] | 1.6
QYMNENELRVLADTYDSVYLHPNS [G6N] | 2.18
QYMNEPELRVLADTYDSVYLHPNS [G6P] | 3.01
QYMNEQELRVLADTYDSVYLHPNS [G6Q] | 1.91
QYMNERELRVLADTYDSVYLHPNS [G6R] | 2.03
QYMNESELRVLADTYDSVYLHPNS [G6S] | 1.98
QYMNETELRVLADTYDSVYLHPNS [G6T] | 1.85
QYMNEVELRVLADTYDSVYLHPNS [G6V] | 1.97
QYMNEWELRVLADTYDSVYLHPNS [G6W] | 1.88
QYMNEYELRVLADTYDSVYLHPNS [G6Y] | 2.5
QYMNEGALRVLADTYDSVYLHPNS [E7A] | 1.96
QYMNEGDLRVLADTYDSVYLHPNS [E7D] | 2.04
QYMNEGFLRVLADTYDSVYLHPNS [E7F] | 2.46
